Results: patent US7902330 (ALBERT EINSTEIN COLLEGE OF MEDICINE OF YESHIVA UNIVERSITY, dated 2011)
Starred links: 1 amine or outer side, 2 acyl side, 3 side chain; linkers in the order of their positions; H or OH if unused. Non-standard residues stand in square brackets, D forms with d. No end group written: not given here. *: point of attachment. 4‑nitrohippuryl = O=C(NCC(=O)*)c1ccc([N+](=O)[O-])cc1; Benzoyl(4-(pyrrol-1-yl)) = O=C(c1ccc(-n2cccc2)cc1)*; 10‑hydroxydecanoyl = O=C(CCCCCCCCCO)*; 2,3‑dihydroxybenzyl = Oc1cccc(C*)c1O; Cysteamide = C(CS[*:3])N[*:1]; Dap = NC[C@H](N)C(=O)O

How the values were obtained:
[1] = molecular target: T1, protein kinase C γ (UniProt P05129 1-697, limits assumed); experiment: cell-based or functional assay
[2] = molecular target: T2, protein kinase C ε (UniProt Q02156 1-737, limits assumed); experiment: cell-based or functional assay
T2 sequence (looked up): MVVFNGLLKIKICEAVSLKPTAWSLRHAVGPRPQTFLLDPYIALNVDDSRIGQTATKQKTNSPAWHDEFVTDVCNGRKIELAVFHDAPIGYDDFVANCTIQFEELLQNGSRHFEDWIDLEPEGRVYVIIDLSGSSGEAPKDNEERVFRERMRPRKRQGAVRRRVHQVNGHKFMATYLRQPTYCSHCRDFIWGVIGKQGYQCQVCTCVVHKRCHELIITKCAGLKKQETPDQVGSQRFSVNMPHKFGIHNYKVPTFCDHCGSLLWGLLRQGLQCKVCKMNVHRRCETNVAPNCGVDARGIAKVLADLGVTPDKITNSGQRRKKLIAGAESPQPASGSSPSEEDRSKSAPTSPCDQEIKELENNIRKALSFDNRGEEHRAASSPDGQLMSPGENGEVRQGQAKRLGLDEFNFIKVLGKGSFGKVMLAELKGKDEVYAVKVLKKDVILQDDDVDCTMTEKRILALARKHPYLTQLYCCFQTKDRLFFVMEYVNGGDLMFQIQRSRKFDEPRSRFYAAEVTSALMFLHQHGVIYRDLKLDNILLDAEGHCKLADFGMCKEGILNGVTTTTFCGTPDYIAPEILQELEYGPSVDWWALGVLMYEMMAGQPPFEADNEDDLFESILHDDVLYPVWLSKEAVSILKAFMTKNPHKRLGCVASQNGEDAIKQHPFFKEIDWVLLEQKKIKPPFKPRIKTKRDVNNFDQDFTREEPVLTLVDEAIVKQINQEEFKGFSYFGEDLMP

[3] = molecular target: T3, protein kinase C η (UniProt P24723 1-683, limits assumed); experiment: cell-based or functional assay
T3 sequence (P24723 whole entry): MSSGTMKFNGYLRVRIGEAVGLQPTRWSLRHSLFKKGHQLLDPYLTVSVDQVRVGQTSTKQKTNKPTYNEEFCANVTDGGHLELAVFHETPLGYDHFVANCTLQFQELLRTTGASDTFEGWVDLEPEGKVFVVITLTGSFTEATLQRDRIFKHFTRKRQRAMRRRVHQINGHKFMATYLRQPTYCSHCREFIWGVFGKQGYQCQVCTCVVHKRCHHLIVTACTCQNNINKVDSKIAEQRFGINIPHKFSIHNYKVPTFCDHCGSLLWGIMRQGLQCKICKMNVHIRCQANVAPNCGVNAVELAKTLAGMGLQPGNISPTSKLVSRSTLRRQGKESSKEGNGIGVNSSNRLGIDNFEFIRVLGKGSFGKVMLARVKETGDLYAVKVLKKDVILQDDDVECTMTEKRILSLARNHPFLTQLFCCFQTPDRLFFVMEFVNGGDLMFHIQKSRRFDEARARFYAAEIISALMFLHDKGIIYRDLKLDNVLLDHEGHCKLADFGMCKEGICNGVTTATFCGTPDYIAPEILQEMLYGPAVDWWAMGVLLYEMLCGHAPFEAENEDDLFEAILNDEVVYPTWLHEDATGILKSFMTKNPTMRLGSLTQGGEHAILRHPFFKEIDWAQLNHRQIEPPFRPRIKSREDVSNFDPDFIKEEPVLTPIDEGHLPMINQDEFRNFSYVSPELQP

[4] = molecular target: T4, protein kinase C θ (UniProt Q04759 1-706, limits assumed); experiment: cell-based or functional assay
T4 sequence (Q04759 whole entry): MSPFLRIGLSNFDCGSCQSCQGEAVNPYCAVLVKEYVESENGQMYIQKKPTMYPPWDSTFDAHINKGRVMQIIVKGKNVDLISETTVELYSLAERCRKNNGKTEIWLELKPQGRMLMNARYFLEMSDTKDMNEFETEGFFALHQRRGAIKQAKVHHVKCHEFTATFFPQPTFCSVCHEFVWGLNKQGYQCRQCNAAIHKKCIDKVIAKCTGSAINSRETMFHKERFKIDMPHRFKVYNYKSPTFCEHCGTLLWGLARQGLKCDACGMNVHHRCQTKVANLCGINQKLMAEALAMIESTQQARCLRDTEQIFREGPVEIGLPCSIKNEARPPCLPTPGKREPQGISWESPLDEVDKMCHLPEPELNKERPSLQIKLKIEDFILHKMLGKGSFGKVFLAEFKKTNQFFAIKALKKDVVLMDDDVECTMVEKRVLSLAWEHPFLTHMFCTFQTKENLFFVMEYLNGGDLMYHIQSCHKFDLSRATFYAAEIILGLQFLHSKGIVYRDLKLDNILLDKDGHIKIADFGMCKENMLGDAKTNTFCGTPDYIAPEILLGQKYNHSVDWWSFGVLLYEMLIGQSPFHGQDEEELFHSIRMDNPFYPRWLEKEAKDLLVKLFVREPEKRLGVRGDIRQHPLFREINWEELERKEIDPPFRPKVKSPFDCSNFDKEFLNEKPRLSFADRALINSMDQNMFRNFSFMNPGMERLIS

[5] = molecular target: T5, protein kinase C τ (atypical; ι in the tables) (UniProt P41743 1-596); experiment: cell-based or functional assay
T5 sequence (looked up): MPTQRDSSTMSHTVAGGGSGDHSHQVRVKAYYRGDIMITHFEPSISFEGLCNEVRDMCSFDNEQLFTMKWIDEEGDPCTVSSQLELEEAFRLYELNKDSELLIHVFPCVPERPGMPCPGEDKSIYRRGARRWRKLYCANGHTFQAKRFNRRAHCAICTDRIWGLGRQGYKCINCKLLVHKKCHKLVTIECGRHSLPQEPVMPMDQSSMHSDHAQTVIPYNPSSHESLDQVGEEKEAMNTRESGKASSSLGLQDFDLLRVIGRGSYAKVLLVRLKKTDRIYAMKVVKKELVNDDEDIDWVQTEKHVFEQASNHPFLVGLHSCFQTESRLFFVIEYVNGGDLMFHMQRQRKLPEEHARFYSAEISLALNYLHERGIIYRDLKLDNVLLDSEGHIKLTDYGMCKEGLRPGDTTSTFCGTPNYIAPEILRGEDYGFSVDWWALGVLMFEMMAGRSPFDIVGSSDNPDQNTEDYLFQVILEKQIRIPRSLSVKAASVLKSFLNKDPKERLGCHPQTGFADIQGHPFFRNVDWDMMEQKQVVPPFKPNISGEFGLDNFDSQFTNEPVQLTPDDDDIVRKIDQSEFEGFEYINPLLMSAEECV

[6] = molecular target: T6, protein kinase C ζ (UniProt Q05513 1-592, limits assumed); experiment: cell-based or functional assay
T6 sequence (looked up): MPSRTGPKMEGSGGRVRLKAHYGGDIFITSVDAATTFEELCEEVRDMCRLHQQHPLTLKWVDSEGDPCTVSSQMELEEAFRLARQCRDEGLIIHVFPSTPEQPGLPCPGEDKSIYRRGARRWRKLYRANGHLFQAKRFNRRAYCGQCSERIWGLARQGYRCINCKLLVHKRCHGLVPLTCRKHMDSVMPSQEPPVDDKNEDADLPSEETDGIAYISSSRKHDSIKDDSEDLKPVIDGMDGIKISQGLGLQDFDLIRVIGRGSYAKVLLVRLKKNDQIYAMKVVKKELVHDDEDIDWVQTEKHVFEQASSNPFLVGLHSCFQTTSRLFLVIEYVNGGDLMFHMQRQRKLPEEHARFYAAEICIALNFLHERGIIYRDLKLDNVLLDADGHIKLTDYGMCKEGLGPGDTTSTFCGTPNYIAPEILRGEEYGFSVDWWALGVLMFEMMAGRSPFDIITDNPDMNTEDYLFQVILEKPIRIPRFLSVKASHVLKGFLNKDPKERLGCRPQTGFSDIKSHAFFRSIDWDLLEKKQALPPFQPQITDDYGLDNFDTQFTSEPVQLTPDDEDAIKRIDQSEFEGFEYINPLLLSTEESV

[7] = molecular target: T7, protein kinase Cα (UniProt P17252 1-672, limits assumed); experiment: cell-based or functional assay
[8] = molecular target: T8, protein kinase C βI (UniProt P05771-1 1-671, limits assumed); experiment: cell-based or functional assay
T8 sequence (P05771 whole entry): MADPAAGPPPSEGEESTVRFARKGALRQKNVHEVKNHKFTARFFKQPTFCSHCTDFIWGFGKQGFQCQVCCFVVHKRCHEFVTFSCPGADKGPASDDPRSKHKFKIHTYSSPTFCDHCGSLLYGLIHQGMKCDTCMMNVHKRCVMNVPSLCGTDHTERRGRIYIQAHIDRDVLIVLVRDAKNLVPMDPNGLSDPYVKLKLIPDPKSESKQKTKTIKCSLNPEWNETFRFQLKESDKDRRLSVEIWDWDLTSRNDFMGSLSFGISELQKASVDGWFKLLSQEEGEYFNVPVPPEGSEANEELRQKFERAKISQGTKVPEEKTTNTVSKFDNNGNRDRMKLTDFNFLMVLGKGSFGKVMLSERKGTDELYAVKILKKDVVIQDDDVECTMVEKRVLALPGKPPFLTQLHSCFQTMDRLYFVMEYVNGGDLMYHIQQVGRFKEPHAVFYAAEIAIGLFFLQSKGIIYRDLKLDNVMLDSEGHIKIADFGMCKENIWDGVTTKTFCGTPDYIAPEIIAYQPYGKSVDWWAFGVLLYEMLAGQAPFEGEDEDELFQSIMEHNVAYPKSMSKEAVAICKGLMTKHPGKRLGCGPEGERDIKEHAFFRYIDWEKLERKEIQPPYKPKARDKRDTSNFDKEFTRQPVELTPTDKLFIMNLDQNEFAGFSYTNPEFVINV

[9] = molecular target: T7, protein kinase Cα; experiment: cell-based or functional assay; remark: listed apart in the source
[10] = molecular target: T7, protein kinase Cα; experiment: PKCα 33P kinase assay, Ki obtained by varying the concentration of peptide substrate Ac-Ser-Phe-Arg-Arg-Arg-NH2
Description: Subsequent assay workup and scintillation counting were performed as described under "Protein Kinase C α, β and γ Assay (library screening)".
The reaction was initiated as described above. […] Following an additional 5 min incubation at ambient temperature, 75 µL from each reaction well was transferred into each well of a Unifilter (P81 cellulose phosphate paper) assay plate and washed four times with 0.1% phosphoric acid in water. […] IC$50$ values were calculated using GraFit (Erithacus Software Limited) and K_i values were calculated using Enzyme Kinetics, SigmaPlot (SPSS Inc.)

[11] = molecular target: T1, protein kinase C γ; experiment: cell-based or functional assay; remark: listed apart in the source
[12] = molecular target: T2, protein kinase C ε; experiment: cell-based or functional assay; remark: listed apart in the source
[13] = molecular target: T3, protein kinase C η; experiment: cell-based or functional assay; remark: listed apart in the source
[14] = molecular target: T4, protein kinase C θ; experiment: cell-based or functional assay; remark: listed apart in the source
[15] = molecular target: T5, protein kinase C τ (atypical; printed ι …); experiment: cell-based or functional assay; remark: listed apart in the source
[16] = molecular target: T6, protein kinase C ζ; experiment: cell-based or functional assay; remark: listed apart in the source
[17] = molecular target: T7, protein kinase Cα; experiment: cell-based or functional assay; remark: listed apart in the source
[18] = molecular target: T8, protein kinase C βI; experiment: cell-based or functional assay; remark: listed apart in the source
[19] = molecular target: T1, protein kinase C γ; experiment: cell-based or functional assay; remark: listed apart in the source
[20] = molecular target: T2, protein kinase C ε; experiment: cell-based or functional assay; remark: listed apart in the source
[21] = molecular target: T3, protein kinase C η; experiment: cell-based or functional assay; remark: listed apart in the source
[22] = molecular target: T4, protein kinase C θ; experiment: cell-based or functional assay; remark: listed apart in the source
[23] = molecular target: T5, protein kinase C τ (atypical; printed ι …); experiment: cell-based or functional assay; remark: listed apart in the source
[24] = molecular target: T6, protein kinase C ζ; experiment: cell-based or functional assay; remark: listed apart in the source
[25] = molecular target: T7, protein kinase Cα; experiment: cell-based or functional assay; remark: listed apart in the source
[26] = molecular target: T8, protein kinase C βI; experiment: cell-based or functional assay; remark: listed apart in the source

B1: compound 6 (primary lead from library IV) (peptide)
peptide: ARRGALR[Dap](Benzoyl(4-(pyrrol-1-yl)))A-Cysteamide
modifications: also: further groups not given here
notes: also called peptide 6; Compound H
selectivity for PKCα versus this isoform [1]: 580 fold
selectivity for PKCα versus this isoform [2]: 600 fold
selectivity for PKCα versus this isoform [3]: 1310 fold
selectivity for PKCα versus this isoform [4]: 1210 fold
selectivity for PKCα versus this isoform [5]: 940 fold
selectivity for PKCα versus this isoform [6]: 640 fold
IC50 as an inhibitor of histone III-S phosphorylation by PKCα [7]: 31.7 nM
selectivity for PKCα versus this isoform [8]: 385 fold
IC50, PKCα-catalysed phosphorylation of peptide substrate (33P assay) [9]: 0.0019 µM
Ki [10]: 0.8 nM

B2: Compound A (diacetylated consensus derivative) (peptide)
peptide: Ac-RRQG[Dap](Ac)FMYF-Cysteamide
IC50, PKC kinase assay [6]: 80 µM

B3: Compound B (peptide)
peptide: Ac-RRQG[Dap](10‑hydroxydecanoyl)FMYF-Cysteamide
IC50, PKC ζ kinase assay [6]: 0.85 µM
IC50 relative to the diacetylated parent peptide A [6]: ~100 fold

B4: Compound C (peptide)
peptide: Ac-RRQG[Dap](4‑nitrohippuryl)FMYF-Cysteamide
SMILES: CSCC[C@H](NC(=O)[C@H](Cc1ccccc1)NC(=O)[C@H](CNC(=O)CNC(=O)c1ccc([N+](=O)[O-])cc1)NC(=O)CNC(=O)[C@H](CCC(N)=O)NC(=O)[C@H](CCCNC(=N)N)NC(=O)[C@H](CCCNC(=N)N)NC(C)=O)C(=O)N[C@@H](Cc1ccc(O)cc1)C(=O)N[C@@H](Cc1ccccc1)C(=O)NCCS
IC50, PKC ζ kinase assay [6]: 6.4 µM

B5: Compound E (nonacylated free amine) (peptide)
peptide: H-RRQG[Dap]FMYF-Cysteamide
modifications: not fully specified (residue 5)
IC50, PKC kinase assay (33P, peptide substrate) [11]: 4.4 µM
Selectivity (IC50 relative to PKC βI = 1) [11]: 550 fold
IC50, PKC kinase assay (33P, peptide substrate) [12]: 2.3 µM
Selectivity (IC50 relative to PKC βI = 1) [12]: 287 fold
IC50, PKC kinase assay (33P, peptide substrate) [13]: 13.2 µM
Selectivity (IC50 relative to PKC βI = 1) [13]: 1650 fold
IC50, PKC kinase assay (33P, peptide substrate) [14]: 14.2 µM
Selectivity (IC50 relative to PKC βI = 1) [14]: 1780 fold
Selectivity (IC50 relative to PKC βI = 1) [15]: 94 fold
IC50, PKC kinase assay (33P, peptide substrate) [16]: 0.022 µM
Selectivity (IC50 relative to PKC βI = 1) [16]: 2.8 fold
IC50, PKC kinase assay (33P, peptide substrate) [17]: 3.1 µM
Selectivity (IC50 relative to PKC βI = 1) [17]: 387 fold
IC50, PKC kinase assay (33P, peptide substrate) [18]: 0.008 µM
Selectivity (IC50 relative to PKC βI = 1) [18]: 1 fold

B6: compound 3 (lead from library III) (peptide)
peptide: Ac-ARRGALR[Dap](Benzoyl(4-(pyrrol-1-yl)))A-Cysteamide
notes: also called peptide 3
IC50, PKCα-catalysed phosphorylation of peptide substrate (33P assay) [9]: 4.7 µM
Ki [10]: 550 nM

B7: compound 4 (diacetylated control peptide) (peptide)
peptide: Ac-ARRGALR[Dap](Ac)A-NH2
notes: also called peptide 4; starting parent peptide 4
IC50, PKCα-catalysed phosphorylation of peptide substrate (33P assay) [9]: 1100 µM
Ki [10]: 350000 nM

B8: Compound F (peptide)
peptide: {2,3‑dihydroxybenzyl}-RRQG[Dap](4‑nitrohippuryl)FMYF-Cysteamide
IC50, PKC kinase assay (33P, peptide substrate) [11]: 9 µM
IC50, PKC kinase assay (33P, peptide substrate) [12]: 8.8 µM
IC50, PKC kinase assay (33P, peptide substrate) [13]: 12.3 µM
IC50, PKC kinase assay (33P, peptide substrate) [14]: 13.7 µM
IC50, PKC kinase assay (33P, peptide substrate) [16]: 3.6 µM
IC50, PKC kinase assay (33P, peptide substrate) [17]: 17 µM
IC50, PKC kinase assay (33P, peptide substrate) [18]: 3.1 µM
Fold selectivity (IC50), PKC δ = 1 [19]: 500 fold
Fold selectivity (IC50), PKC δ = 1 [20]: 489 fold
Fold selectivity (IC50), PKC δ = 1 [21]: 683 fold
Fold selectivity (IC50), PKC δ = 1 [22]: 761 fold
Fold selectivity (IC50), PKC δ = 1 [23]: 26 fold
Fold selectivity (IC50), PKC δ = 1 [24]: 200 fold
Fold selectivity (IC50), PKC δ = 1 [25]: 944 fold
Fold selectivity (IC50), PKC δ = 1 [26]: 172 fold
